According to patent US20090155164A1 (Amgen, published 2009):

How the values were obtained:
[1] = target: T1, avidin-c-fms Ig-like 1 domain fusion protein (chicken; human, UniProt P07333 20-126); experiment: FACS, biotin beads coated with the avidin fusion protein, FITC-1.2 without competitor
T1 construct: Joined through an XhoI site; Captured on biotin beads; also called Ig1 construct; Ig-like loop 1 (IPVI-ALLP); not shown: chicken avidin, N-terminal fusion partner from pCEP4-Avidin(N)

[2] = target: T2, avidin-c-fms Ig-like 1-4 domain fusion protein (chicken; human, UniProt P07333 20-418); experiment: FACS, biotin beads loaded with the avidin fusion protein, FITC-labeled antibody; Neg CM value of this antibody 4.74
T2 construct: Captured on biotin beads; also called Ig-like loops 1-4 (IPVI-GTLL); not shown: chicken avidin, N-terminal fusion partner from pCEP4-Avidin(N)
Method: (§1) The concentration of each c-fms avidin fusion protein was determined using a quantitative FACS based assay. The c-fms avidin fusion proteins were captured on 6.7 μm biotin polystyrene beads (Spherotech, Inc., Libertyville Ill.). 1× conditioned media (20 and 200 μl) were added to 5 μl (˜3.5×10⁵) beads, and incubated for 1 hr at room temperature with rotation. Conditioned media was removed by centrifugation and samples were washed with PBS containing 0.5% BSA (BPBS). The avidin beads were stained with 200 μl of a 0.5 μg/ml solution of a goat FITC-labeled anti-avidin antibody (Vector Labs, Burlingame, Calif.) in BPBS for 45 minutes at room temperature covered by foil. Following incubation, the beads were recollected by centrifugation, washed with BPBS, and resuspended for analysis in 0.5 ml BPBS. The FITC fluorescence was detected using a FACScan (Becton Dickinson Bioscience, Franklin Lakes, N.J.). The signal was converted to protein mass using a standard curve derived with rAvidin. For epitope mapping, biotin beads were loaded with ˜100 ng of c-fms avidin fusion protein per 3.5×10⁵ beads and brought up to volume with growth medium.
(§2) After incubation for 1 hr at room temperature, 3 ml washing buffer (BPBS) was added and the antibody-beads complexes were collected by centrifugation for 5 min at 750×g. The pellet was washed in 3 ml of BPBS. The antibody bound to avidin-bead complexes was detected by FACS (Becton Dickinson) analysis. The mean (X) fluorescent intensity was recorded for each sample.

[3] = target: T3, avidin-c-fms Ig-like 1-2 domain fusion protein (chicken; human, UniProt P07333 20-223); experiment: as above
T3 construct: Captured on biotin beads; also called Ig1-2 construct; Ig-like loops 1 and 2 (IPVI-AQIV); not shown: chicken avidin, N-terminal fusion partner from pCEP4-Avidin(N)
Method: as §1, §2

[4] = target: T4, avidin-c-fms Ig-like 1-5 domain fusion protein (full extracellular domain) (chicken; human, UniProt P07333 20-512); experiment: as above
T4 construct: Captured on biotin beads; also called c-fms ECD Ig1-5 construct; human c-fms ECD; not shown: chicken avidin, N-terminal fusion partner from pCEP4-Avidin(N)
Method: as §1, §2

[5] = target: T1, avidin-c-fms Ig-like 1 domain fusion …; experiment: as above
Method: as §1, §2

[6] = target: T2, avidin-c-fms Ig-like 1-4 domain fusion …; experiment: FACS, biotin beads loaded with the avidin fusion protein, FITC-labeled antibody; Neg CM value of this antibody 3.32
Method: as §1, §2

[7] = target: T3, avidin-c-fms Ig-like 1-2 domain fusion …; experiment: as above
Method: as §1, §2

[8] = target: T4, avidin-c-fms Ig-like 1-5 domain fusion …; experiment: as above
Method: as §1, §2

[9] = target: T1, avidin-c-fms Ig-like 1 domain fusion …; experiment: as above
Method: as §1, §2

[10] = target: T1, avidin-c-fms Ig-like 1 domain fusion …; experiment: FACS, biotin beads coated with the avidin fusion protein, FITC-2.36 without competitor
[11] = target: T1, avidin-c-fms Ig-like 1 domain fusion …; experiment: FACS, biotin beads coated with the avidin fusion protein, FITC-1.109 without competitor
[12] = target: T2, avidin-c-fms Ig-like 1-4 domain fusion …; experiment: FACS, biotin beads loaded with the avidin fusion protein, FITC-labeled antibody; Neg CM value of this antibody 4.22
Method: as §1, §2

[13] = target: T3, avidin-c-fms Ig-like 1-2 domain fusion …; experiment: as above
Method: as §1, §2

[14] = target: T4, avidin-c-fms Ig-like 1-5 domain fusion …; experiment: as above
Method: as §1, §2

[15] = target: T1, avidin-c-fms Ig-like 1 domain fusion …; experiment: as above
Method: as §1, §2

T1 sequence (P07333 20-126 limits assumed): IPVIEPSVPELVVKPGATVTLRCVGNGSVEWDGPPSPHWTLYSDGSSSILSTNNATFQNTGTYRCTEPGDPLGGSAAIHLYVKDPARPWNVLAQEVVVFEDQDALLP
T3 sequence (P07333 20-223 limits assumed): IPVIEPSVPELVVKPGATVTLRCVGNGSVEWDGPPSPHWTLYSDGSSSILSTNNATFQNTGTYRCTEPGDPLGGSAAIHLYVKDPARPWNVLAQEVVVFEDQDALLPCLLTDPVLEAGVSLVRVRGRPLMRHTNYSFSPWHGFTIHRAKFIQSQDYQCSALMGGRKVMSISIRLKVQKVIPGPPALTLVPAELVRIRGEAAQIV
T2 sequence (P07333 20-418 limits assumed): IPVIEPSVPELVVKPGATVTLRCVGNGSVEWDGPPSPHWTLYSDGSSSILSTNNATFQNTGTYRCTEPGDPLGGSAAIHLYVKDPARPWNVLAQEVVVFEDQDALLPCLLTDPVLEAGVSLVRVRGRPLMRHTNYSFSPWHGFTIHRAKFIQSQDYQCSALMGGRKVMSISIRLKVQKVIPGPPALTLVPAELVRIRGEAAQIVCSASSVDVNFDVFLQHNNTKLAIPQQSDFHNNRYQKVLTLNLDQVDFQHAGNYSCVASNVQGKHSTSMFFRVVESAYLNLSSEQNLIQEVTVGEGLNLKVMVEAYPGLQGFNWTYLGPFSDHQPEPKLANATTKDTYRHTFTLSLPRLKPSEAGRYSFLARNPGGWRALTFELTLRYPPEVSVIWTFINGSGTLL
T4 sequence (P07333 20-512 limits assumed): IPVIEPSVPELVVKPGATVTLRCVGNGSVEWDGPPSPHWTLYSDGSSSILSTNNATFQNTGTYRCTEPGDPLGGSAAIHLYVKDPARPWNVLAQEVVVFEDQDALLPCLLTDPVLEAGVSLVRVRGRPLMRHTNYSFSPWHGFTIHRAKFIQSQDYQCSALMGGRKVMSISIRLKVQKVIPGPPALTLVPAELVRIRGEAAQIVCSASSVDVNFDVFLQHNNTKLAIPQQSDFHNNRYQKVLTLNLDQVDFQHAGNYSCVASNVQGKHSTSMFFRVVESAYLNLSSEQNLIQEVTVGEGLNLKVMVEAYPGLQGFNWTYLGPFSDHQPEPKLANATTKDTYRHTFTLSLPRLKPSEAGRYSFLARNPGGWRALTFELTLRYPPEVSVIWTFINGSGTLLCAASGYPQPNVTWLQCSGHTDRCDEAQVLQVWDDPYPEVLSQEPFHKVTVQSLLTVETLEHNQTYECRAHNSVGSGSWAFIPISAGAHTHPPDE

B1: anti-c-fms IgG2 clone 1.2 (parent form, PT) (antibody, V domains shown)
VH: QVQLVQSGAEVKKPGASVKVSCKASGYTFTSYGISWVRQAPGQGLEWMGWISAYNGNTNYAQKLQGRVTMTTDTSTSTAYMELRSLRSDDTAVYYCARESWFGEVFFDYWGQGTLVTVSS
VL: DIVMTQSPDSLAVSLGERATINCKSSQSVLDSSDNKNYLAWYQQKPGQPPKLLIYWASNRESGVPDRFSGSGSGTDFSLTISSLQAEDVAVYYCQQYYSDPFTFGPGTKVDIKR
modifications: N-terminal glutamine cyclized to pyroglutamic acid; C-terminal lysine absent
notes: Recombinant human IgG2 kappa from COS/PKB cells (hybridoma was IgG1); also called 1.2.1; Clone 1.2 PT
With B1 the binding result [1] was “no binding (tested: 1 µg/ml)”, the MFI [2] was 134 and the MFI [3] was 148. It also gave an MFI [4] of 342 and an MFI [5] of 2.89.

B2: anti-c-fms IgG2 clone 2.360 (parent form, PT) (antibody, V domains shown)
VH: QVQLVQSGAEVKKPGASVKVSCKVSGYTLTELSMHWVRQAPGKGLEWMGGFDPEDGETIYAQKFQGRVTMTEDTSTDTVYMELSSLRSEDTAVYYCATGVMITFGGVIVGHSYYGMDVWGQGTTVTVSS
VL: DIQMTQSPSSLSASVGDRVTITCRASQGINNYLAWYQQKPGKVPQLLIYVASTLQSGVPSRFSGSGSGTDFTLTISSLQPEDVATYYCQKYNSGPFTFGPGTKVDIKR
modifications: N-terminal glutamine cyclized to pyroglutamic acid; C-terminal lysine absent
notes: Recombinant human IgG2 kappa from COS/PKB cells
B2 was tested, and the MFI [6] was 10.4, the MFI [7] was 12 and the MFI [8] was 15.4. For the same binder, the MFI [9] was 2.85 and the binding result [10] was “no binding (tested: 1 µg/ml)”.

B3: anti-c-fms IgG2 clone 1.109 (parent form, PT) (antibody, V domains shown)
VH: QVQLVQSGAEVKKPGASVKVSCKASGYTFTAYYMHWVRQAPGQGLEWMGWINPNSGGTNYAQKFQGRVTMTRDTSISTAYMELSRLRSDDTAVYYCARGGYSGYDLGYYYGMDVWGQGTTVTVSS
VL: DIQMTQSPSSLSASVGDRVTITCQASQNISNFLDWYQQKPGKAPNLLIYDASDLDPGVPSRFSGSGSGTDFTFTISSLQPEDIATYYCQQYVSLPLTFGGGTKVEIKR
modifications: N-linked glycosylation site at Asn-28 in CDR1, reported as likely occupied; N-terminal glutamine cyclized to pyroglutamic acid; C-terminal lysine absent
notes: Recombinant human IgG2 kappa from COS/PKB cells (hybridoma was IgG1)
In the case of B3, the binding result [11] is reported as “no binding (tested: 1 µg/ml)”, the MFI [12] is reported as 215 and the MFI [13] is reported as 232. It also gave an MFI [14] of 668 and an MFI [15] of 2.93.
